Paper PMC8693861, “Structure, mechanism, and inhibition of Hedgehog acyltransferase” (Molecular Cell, 2021)

B1: nanobody NB169 (VHH)
VHH: QVQLVESGGGLVQAGGSLRLSCAASGSIRSINGMGWYRQAPGKQRELVAALSSGGSTNYADSVKGRFTISRDNAKKTVNLQMNSLKPEDTAVYYCNARRGGRSWSEGPPYDYWGQGTQVTVSS
B2: nanobody NB177 (VHH)
VHH: QVQLVESGGGLVQAGGSLRLSCTASGAIFSTYDVSWYRQAPEKPRELVAIITRGGNTHYADTVKGRFTISRDNAKNTVYLQMNSLKPEDTAVYYCHAGVQGAMLGPRNYWGQGTQVTVSS

Target: biotinylated human HHAT-Avi-1D4 (pHR-CMV-TetO2-HHAT-wildtype-Avi-1D4) (Homo sapiens, natural variant VAR_024743, strain, biotin on the biotinylation tag)
Sequence (Q5VTY9 other isoform, or with tags, fused parts or gaps, change not shown): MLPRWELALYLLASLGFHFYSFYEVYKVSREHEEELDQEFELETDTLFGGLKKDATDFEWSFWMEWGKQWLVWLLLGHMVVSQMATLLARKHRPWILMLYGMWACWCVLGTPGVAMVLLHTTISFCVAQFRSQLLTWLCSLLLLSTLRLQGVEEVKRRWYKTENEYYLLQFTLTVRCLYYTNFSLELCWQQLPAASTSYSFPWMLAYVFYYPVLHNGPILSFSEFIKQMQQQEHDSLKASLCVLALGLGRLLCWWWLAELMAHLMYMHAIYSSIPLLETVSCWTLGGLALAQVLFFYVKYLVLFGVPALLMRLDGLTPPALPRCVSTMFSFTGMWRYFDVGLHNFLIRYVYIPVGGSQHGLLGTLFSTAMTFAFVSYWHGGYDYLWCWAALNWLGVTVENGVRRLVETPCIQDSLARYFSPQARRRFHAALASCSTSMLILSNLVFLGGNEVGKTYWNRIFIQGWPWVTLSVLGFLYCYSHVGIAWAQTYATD
Assay: cell-based or functional assay

Row | Binder | IC50 of inhibition of HHAT-catalysed palmitoyl transfer to a SHH peptide (acyl-cLIP assay); blocks HHAT with SHH
1 | B1 | 1.3 nM
2 | B2 | 0.9 nM
